Results taken from PMC3799832.

Molecular target: full-length talin1 purified from turkey gizzard (turkey)
Experiment: electron microscopy single-particle 3D reconstruction

full-length talin1 purified from turkey gizzard
stoichiometry N: 2
